Data published in the supplement of paper PMC10065799, “High-throughput profiling of sequence recognition by tyrosine kinases and SH2 domains using bacterial peptide display” (eLife, 2023).

Assays:
[1] = target: Grb2 SH2 (UniProt P62993); test: SH2 binding enrichment of the phosphorylated peptide, bacterial display (enrichment ratio); higher = better substrate or ligand; peptides without Tyr show the background
[2] = target: SHP2-C SH2; test: as above
[3] = target: c-Src SH2; test: as above
[4] = system: Fer (mouse); test: phosphorylation enrichment, bacterial display (enrichment ratio); higher = better substrate or ligand; peptides without Tyr show the background
[5] = target: EPHB1 (UniProt P54762); test: as above
[6] = target: FGFR3 (UniProt P22607); test: as above
[7] = target: Jak2 (UniProt O60674); test: as above
[8] = target: Fes (UniProt P07332); test: as above
[9] = system: c-Src; test: as above
[10] = system: c-Abl (mouse); test: as above
[11] = target: Fyn (UniProt P06241); test: as above
[12] = target: FGFR1 (UniProt P11362); test: as above
[13] = target: EPHB2 (UniProt P29323); test: as above
[14] = system: AncSZ; test: as above
[15] = target: MERTK (UniProt Q12866); test: as above
[16] = target: Hck (UniProt P08631); test: as above
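For SH2 binding enrichment of the phosphorylated peptide, bacterial display in this document: peptide library displayed on the E. coli surface as eCPX fusions, selected cells deep-sequenced, score is each peptide's frequency after selection divided by its frequency in the input.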
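For phosphorylation enrichment, bacterial display in this document: 11-residue human phosphosite peptides and single-mutation variants displayed on the E. coli surface, counted by deep sequencing, each peptide's frequency after selection divided by its frequency in the unselected input library; frequency after pTyr selection over input frequency; kinase dosed for 20-30% of maximal phosphorylation in three min.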

Sequence of Fyn (P06241 whole entry, looked up): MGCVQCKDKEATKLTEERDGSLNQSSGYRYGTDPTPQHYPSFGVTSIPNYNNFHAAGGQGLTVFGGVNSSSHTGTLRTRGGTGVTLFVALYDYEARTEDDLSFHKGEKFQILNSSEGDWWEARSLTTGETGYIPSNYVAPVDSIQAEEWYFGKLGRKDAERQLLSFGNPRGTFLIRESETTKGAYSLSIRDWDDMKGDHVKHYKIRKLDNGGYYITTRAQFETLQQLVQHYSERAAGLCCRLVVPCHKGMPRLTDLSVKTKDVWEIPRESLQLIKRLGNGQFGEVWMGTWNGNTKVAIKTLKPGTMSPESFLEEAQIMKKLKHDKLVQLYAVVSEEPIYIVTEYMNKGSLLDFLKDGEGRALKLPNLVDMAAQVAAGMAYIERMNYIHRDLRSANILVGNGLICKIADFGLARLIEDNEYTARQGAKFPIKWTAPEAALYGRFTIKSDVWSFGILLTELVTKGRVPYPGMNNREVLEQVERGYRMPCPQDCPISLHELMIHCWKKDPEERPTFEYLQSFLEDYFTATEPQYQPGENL
Sequence of FGFR1 (P11362 whole entry, looked up): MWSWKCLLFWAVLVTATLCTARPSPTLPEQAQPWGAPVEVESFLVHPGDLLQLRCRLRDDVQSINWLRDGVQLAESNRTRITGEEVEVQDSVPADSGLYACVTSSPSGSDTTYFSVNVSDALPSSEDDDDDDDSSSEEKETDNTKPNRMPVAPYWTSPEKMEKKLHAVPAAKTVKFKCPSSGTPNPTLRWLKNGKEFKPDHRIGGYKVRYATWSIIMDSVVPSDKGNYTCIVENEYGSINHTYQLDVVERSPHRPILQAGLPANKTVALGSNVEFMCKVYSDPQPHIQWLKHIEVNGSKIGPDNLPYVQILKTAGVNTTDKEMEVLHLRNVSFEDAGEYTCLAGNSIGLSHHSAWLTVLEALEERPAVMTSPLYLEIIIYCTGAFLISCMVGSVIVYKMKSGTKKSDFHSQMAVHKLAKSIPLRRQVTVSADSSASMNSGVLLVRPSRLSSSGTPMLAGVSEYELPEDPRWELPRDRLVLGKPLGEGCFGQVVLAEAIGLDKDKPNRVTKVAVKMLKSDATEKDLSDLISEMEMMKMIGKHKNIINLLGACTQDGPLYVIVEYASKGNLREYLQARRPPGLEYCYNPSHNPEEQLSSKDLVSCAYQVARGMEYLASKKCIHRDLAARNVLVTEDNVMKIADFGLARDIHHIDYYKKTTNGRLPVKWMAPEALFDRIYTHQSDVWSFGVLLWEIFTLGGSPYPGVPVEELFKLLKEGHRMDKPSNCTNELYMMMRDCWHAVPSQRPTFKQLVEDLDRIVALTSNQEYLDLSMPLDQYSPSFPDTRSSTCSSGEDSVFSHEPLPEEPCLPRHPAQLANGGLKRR
Sequence of EPHB2 (P29323 whole entry, looked up): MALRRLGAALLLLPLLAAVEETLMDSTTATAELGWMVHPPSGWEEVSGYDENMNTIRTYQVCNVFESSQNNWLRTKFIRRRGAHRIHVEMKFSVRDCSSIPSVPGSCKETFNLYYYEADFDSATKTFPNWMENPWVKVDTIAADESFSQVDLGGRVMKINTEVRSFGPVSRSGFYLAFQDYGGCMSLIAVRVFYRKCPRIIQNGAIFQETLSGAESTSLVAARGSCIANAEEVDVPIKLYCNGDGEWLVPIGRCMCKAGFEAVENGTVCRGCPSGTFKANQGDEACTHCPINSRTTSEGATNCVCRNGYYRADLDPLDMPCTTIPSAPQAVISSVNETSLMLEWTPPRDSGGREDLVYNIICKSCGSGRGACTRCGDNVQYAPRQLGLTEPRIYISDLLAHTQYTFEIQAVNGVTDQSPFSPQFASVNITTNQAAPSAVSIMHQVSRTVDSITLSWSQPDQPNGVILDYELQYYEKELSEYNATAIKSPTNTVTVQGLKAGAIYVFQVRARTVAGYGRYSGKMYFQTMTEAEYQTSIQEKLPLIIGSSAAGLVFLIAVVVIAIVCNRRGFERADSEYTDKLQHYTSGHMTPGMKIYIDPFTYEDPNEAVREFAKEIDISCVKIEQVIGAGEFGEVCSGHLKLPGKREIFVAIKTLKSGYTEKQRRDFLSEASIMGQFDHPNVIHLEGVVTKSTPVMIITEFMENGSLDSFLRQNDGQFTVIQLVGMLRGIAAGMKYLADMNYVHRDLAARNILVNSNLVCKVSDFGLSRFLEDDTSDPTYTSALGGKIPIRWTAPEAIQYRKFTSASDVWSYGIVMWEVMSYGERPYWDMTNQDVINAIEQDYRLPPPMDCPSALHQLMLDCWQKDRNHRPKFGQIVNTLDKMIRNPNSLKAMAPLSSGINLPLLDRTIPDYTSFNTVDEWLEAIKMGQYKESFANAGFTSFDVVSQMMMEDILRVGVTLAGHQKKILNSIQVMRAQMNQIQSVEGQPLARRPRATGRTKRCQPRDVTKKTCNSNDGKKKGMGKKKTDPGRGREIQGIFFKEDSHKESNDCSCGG
Sequence of Hck (P08631 whole entry, looked up, the tested form may be a part): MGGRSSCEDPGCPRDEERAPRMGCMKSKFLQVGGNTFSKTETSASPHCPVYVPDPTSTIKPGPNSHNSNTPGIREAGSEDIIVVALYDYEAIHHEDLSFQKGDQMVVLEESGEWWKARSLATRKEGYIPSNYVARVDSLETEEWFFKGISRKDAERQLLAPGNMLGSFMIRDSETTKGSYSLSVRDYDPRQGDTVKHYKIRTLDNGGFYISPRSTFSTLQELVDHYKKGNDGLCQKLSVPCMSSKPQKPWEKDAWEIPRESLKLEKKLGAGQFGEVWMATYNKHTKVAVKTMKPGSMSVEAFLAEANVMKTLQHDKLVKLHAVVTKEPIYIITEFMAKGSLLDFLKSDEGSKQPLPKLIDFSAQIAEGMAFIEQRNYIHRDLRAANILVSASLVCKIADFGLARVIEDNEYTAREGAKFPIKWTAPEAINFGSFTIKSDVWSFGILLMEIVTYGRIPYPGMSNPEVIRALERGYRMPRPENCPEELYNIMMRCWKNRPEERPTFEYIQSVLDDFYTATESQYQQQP
Sequence of EPHB1 (P54762 whole entry, looked up): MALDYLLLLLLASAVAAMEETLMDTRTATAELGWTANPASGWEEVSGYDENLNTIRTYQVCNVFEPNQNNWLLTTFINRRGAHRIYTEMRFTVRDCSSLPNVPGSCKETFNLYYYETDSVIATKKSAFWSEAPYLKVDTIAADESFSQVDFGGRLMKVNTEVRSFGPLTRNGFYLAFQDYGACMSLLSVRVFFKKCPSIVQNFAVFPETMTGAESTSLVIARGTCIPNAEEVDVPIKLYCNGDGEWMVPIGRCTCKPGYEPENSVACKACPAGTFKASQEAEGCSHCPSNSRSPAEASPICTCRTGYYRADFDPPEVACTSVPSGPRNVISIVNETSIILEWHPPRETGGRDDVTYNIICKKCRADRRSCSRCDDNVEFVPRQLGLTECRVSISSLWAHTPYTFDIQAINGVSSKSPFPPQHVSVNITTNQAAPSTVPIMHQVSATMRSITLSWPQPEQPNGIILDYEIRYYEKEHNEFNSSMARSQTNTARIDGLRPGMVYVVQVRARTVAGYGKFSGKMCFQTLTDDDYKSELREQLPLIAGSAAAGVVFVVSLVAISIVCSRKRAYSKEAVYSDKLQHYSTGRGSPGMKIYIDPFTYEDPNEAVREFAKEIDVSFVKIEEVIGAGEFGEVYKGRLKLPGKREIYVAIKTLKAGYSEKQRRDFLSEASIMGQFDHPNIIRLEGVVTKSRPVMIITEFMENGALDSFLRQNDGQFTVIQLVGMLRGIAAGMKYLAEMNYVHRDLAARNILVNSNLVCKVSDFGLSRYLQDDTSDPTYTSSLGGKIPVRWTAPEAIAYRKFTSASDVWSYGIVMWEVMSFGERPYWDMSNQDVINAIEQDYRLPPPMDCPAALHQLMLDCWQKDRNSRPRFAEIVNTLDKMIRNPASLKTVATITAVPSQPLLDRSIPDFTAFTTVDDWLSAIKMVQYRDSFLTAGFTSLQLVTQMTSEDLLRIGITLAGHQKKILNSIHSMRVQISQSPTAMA
Sequence of Jak2 (O60674 whole entry, looked up): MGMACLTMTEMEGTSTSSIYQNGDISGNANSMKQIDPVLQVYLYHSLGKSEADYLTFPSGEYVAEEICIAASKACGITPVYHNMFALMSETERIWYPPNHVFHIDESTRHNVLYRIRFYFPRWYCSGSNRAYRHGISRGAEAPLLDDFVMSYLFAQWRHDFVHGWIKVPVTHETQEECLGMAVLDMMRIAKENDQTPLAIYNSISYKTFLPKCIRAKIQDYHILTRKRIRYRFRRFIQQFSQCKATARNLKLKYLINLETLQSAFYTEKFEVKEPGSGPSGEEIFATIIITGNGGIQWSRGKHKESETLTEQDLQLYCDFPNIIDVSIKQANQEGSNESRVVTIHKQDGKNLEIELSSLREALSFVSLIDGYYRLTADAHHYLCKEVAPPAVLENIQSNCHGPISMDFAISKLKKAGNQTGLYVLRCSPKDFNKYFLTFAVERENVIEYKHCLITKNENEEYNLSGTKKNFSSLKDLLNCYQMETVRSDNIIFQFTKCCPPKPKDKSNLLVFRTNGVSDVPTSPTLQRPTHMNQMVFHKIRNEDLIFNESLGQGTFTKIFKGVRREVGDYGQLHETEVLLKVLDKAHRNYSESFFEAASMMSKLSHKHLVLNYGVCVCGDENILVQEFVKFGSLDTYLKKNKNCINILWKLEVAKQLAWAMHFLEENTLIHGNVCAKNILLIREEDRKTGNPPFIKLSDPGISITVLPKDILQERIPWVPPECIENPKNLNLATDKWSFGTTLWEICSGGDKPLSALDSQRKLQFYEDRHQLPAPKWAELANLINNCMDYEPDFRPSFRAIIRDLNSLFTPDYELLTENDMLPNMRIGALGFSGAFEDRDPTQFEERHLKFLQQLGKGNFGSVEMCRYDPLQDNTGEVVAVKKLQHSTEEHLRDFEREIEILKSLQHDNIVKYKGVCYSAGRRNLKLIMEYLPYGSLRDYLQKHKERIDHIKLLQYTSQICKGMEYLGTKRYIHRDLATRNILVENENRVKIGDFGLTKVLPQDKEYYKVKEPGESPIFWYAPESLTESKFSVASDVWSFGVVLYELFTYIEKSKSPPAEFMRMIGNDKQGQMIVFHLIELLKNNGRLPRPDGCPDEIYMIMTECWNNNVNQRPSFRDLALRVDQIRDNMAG

Sequence	SH2 binding enrichment [1]	SH2 binding enrichment [2]	SH2 binding enrichment [3]	phosphorylation enrichment [4]	phosphorylation enrichment [5]	phosphorylation enrichment [6]	phosphorylation enrichment [7]	phosphorylation enrichment [8]	phosphorylation enrichment [9]	phosphorylation enrichment [10]	phosphorylation enrichment [11]	phosphorylation enrichment [12]	phosphorylation enrichment [13]	phosphorylation enrichment [14]	phosphorylation enrichment [15]	phosphorylation enrichment [16]
MHDKEYYSVHN [MET_Y1234_Y1230H]	0.827	0.423	0.513	0.411	0.53	2.08	0.807	0.748	0.61	0.479	0.488	3.36	0.497	0.78	0.496	0.459
TENAGYFFQVS	0.61	0.654	0.333	0.414	0.482	0.774	1.21	1.08	0.384	0.89	0.435	0.714	0.546	1.11	0.397	0.442
KDHPDYKYQLR [SOX10_Y171_P175L]	0.93	0.793	0.631	0.418	0.417	0.491	0.656	0.704	0.411	0.696	0.403	0.432	0.395	0.665	0.38	0.431
AEYGLYAAMVR [VSX2_Y222_G223A]	0.82	0.574	0.485	5.05	8.53	0.895	1.16	1.4	4.7	3.28	6.68	0.639	9.84	1.65	6.46	7.14
GFPVHYTDMSN [DNMT3B_Y815_V818M]	0.787	6.03	3.25	0.419	0.388	0.501	0.667	0.699	0.416	0.568	0.536	0.546	0.439	0.947	0.545	0.417
FEDTLYTVLHR [UNC13D_Y61_A59T_YF]	0.771	0.426	0.711	5.83	9.72	1.5	1.56	1.38	6.22	1.99	5.65	1.18	4.95	2.45	7.86	7.58
QLLIKYPPEEV [ZZZ3_Y670]	0.848	1	0.626	0.473	0.898	0.95	1.39	1.62	0.604	1.25	0.7	0.811	0.816	1.25	0.858	0.566
EKFVPYYDLFM [IPO5_Y530]	1.72	1.46	3.84	3.71	4.82	5.89	1.47	1.18	4.22	0.787	3.05	6.89	6.87	1.2	7.26	3.27
PPVVNYEQDAR [FER_Y402_E404Q]	0.879	0.826	0.728	0.679	1.01	1.29	1.49	1.18	0.646	0.767	0.636	0.69	0.534	1.33	0.541	0.628
